Data taken from the supplement of paper PMC12042874.
± gives the uncertainty stated by the source.

Assay: amyloid nucleation score (Sup35N fusion, yeast selection) (log enrichment); library NNK1; higher = more nucleation; inactive = no reads after selection
Outline: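 Nucleation score: DiMSum log enrichment of output over input reads, centred on the mode score of non-aggregating sequences. Only sequences with at least 100 input reads were kept. Reads came from Illumina sequencing of plasmid inserts before and after 7 days of growth at 30°C without adenine and uracil, in psi-negative yeast expressing Sup35N fused to peptides of 20 random codons after 24 hours of induction with 100 μM copper sulfate.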

| Substance | amyloid nucleation score |
| --- | --- |
| ARYYIVREGSEKCDLLTGRG | 0.004 ± 0.61 |
| ASAMLMHF | 0.716 ± 0.2 |
| ASDMSCMQSNSYFNLWTYTM | 1.32 ± 0.4 |
| ASFQFSSCMCSLYAVFSRLL | 0.759 ± 0.44 |
| ASFSLDYSFQMPYILRWFIR | 1.03 ± 0.33 |
| ASLAMISRMYSSYLDGMVFS | -0.412 ± 0.91 |
| ASLKCEKGVCGVFGWSGVGH | -0.687 ± 1.4 |
| ASLRLSTSLCEYGYRGRYTK | -0.05 ± 0.25 |
| ASRIHYWWS | 0.787 ± 0.25 |
| ASRYGSLVPRVVKHLMTRGN | -1 ± 0.67 |
| ASVFLNQLLPCNYSAVRMGS | 0.134 ± 0.84 |
| ATCNSVRARGFTPGHHLAPG | -0.405 ± 1.7 |
| ATKSLRIYLARVMHETSTFG | -0.822 ± 0.61 |
| ATLEGVCNINHPSCCASLLD | 0.002 ± 0.61 |
| ATLHGFLLKICLADVLAYLV | 0.476 ± 0.42 |
| ATMSRGFKQ | 0.834 ± 0.36 |
| ATNSEAARYLS | 0.996 ± 0.62 |
| ATRVFLHIATQRSNLAYLPN | -0.189 ± 0.25 |
| ATSKRIQWLMRERAPPTRYP | 0.203 ± 1.5 |
| ATVSDF | -0.478 ± 0.36 |
| AVEVYGVISRKLINVSDRIG | 0.588 ± 0.69 |
| AVKEGWLFSQVVVERGWNL | -0.588 ± 0.63 |
| AVSAFSTVKSSFGDGGIGFF | -0.398 ± 0.34 |
| AVSSVVPGTCL | 0.55 ± 0.68 |

| Substance | amyloid nucleation score |
| --- | --- |
| AVVCVIIFYVNDRLYGCNLS | 0.395 ± 0.23 |
| AVVDRDMHYASTCSGGVGCH | -0.186 ± 0.96 |
| AVVWDTIYNKTKPLVRP | 0.57 ± 0.93 |
| AWCSSDGCFCPKRYMLLRSL | 0.159 ± 0.84 |
| AWGRDYEELSSPLGMKALTW | 0.381 ± 0.31 |
| AWKGRLAYKWIGNMMAGLVW | 0.005 ± 0.32 |
| AWKLRVFRDSAL | 0.608 ± 1.1 |
| AWLKSSGEEVVAGAQRPEHV | -1.02 ± 0.9 |
| AWNGFDWYHARFCTMSTYIL | -0.56 ± 0.38 |
| AWSLTSTHFG | 0.249 ± 0.69 |
| AYCFNSTGLSRFCSKYLWSN | -0.478 ± 0.45 |
| AYCGSWLQYL | -0.231 ± 0.76 |
| AYCVAHTYCMSGMRYIADWV | 0.421 ± 0.31 |
| AYETLR | -0.385 ± 0.59 |
| AYLADCFPDVSTNWVRAISA | -0.337 ± 0.29 |
| AYSERTSGTMTRVWWDLRSR | -0.795 ± 1.1 |
| AYSRNYYQYAVNEFGDVVFE | 0.312 ± 1.1 |
| AYYGDGFAKGTMLMTS | -0.35 ± 0.32 |
| CAAGARSSGEMAYIARMKAG | 0.482 ± 0.69 |
| CAIWFRTEWFWTVCTWVSGH | -0.201 ± 0.43 |
| CAKGGPSGYKN | -1.41 ± 0.98 |
| CALLRCMLGSYSQYVARVGE | 0.504 ± 0.39 |
| CANFVFCCMGE | 7.396 ± 0.072 |
| CCGVDAFSSRESR | 1.55 ± 0.41 |

| Substance | amyloid nucleation score |
| --- | --- |
| CCLTILSIS | -0.281 ± 0.31 |
| CCRSRLLIITRTVSTAGDSR | -0.54 ± 1.3 |
| CCSRGLKVPDANRASKSGCE | 1.08 ± 0.52 |
| CCVDGLLLIERHVSLQYHSA | 0.135 ± 0.63 |
| CCVRACFPWNVLCKEMIFTR | -0.663 ± 1.6 |
| CDINLRKDTGISHLNGLFNA | 0.755 ± 0.43 |
| CDIVNKSTGGLSTRALKIVY | 0.051 ± 0.69 |
| CDKTYPANSLCLKDFGQLEG | -0.019 ± 0.64 |
| CDQASL | inactive |
| CDRVGSKEQSFDKWPLWFAP | -1.18 ± 1.9 |
| CDTFYLLVLALTYWEWANLE | -0.497 ± 0.99 |
| CDVAVVSFFGMADDPVYRVH | 1.54 ± 0.48 |
| CDVRLPF | 0.249 ± 0.61 |
| CDWSCSDSVCFITLCKYDDC | 6.921 ± 0.047 |
| CECRRANVADPFRVSCWAKF | 0.156 ± 1.2 |
| CEKTWNLRDCSGLLQVTRG | 0.099 ± 0.29 |
| CENVIEFNENVKG | 0.503 ± 0.29 |
| CEVAQCHYLVVWFCAWAWRY | 0.939 ± 0.68 |
| CFDFYSYRVVSSAINYQFVM | -1.02 ± 0.39 |
| CFEVHTHSESLL | -0.662 ± 0.72 |
| CFFDGICLDQERYVMNFRAF | 0.104 ± 0.51 |
| CFFILW | -0.066 ± 0.55 |
